This is an account of results in PMC8433531 (Proceedings of the National Academy of Sciences of the …, 2021).

In assay [1] the test system is IFNβ and interferon-stimulated gene transcripts. The class given is cell-based, human. The conditions noted are these: virus-infected Huh7, MOI 0.2, 48 h, 6250 nM.
The test system of assay [2] is SARS-CoV-2. Description: microbe, parasite or virus in culture. The class given is cell-based.
The test system of assay [3] is SARS-CoV-2. The class given is cell-based.
Assay [4] relates to SARS-CoV-2. The class given is cell-based. This is another data set of the same source.
Assay [5] relates to SARS-CoV-2. Description: Hit validation across cell systems. The class given is cell-based. The conditions noted are these: Huh7, LNCaP, Caco-2, Vero E6, iAEC2.
The test system of assay [6] is SARS-CoV-2. The class given is cell-based. This is another data set of the same source.

B1: Lactoferrin (protein, UniProt P24627 20-708, looked up)
Lactotransferrin: APRKNVRWCTISQPEWFKCRRWQWRMKKLGAPSITCVRRAFALECIRAIAEKKADAVTLDGGMVFEAGRDPYKLRPVAAEIYGTKESPQTHYYAVAVVKKGSNFQLDQLQGRKSCHTGLGRSAGWIIPMGILRPYLSWTESLEPLQGAVAKFFSASCVPCIDRQAYPNLCQLCKGEGENQCACSSREPYFGYSGAFKCLQDGAGDVAFVKETTVFENLPEKADRDQYELLCLNNSRAPVDAFKECHLAQVPSHAVVARSVDGKEDLIWKLLSKAQEKFGKNKSRSFQLFGSPPGQRDLLFKDSALGFLRIPSKVDSALYLGSRYLTTLKNLRETAEEVKARYTRVVWCAVGPEEQKKCQQWSQQSGQNVTCATASTTDDCIVLVLKGEADALNLDGGYIYTAGKCGLVPVLAENRKSSKHSSLDCVLRPTEGYLAVAVVKKANEGLTWNSLKDKKSCHTAVDRTAGWNIPMGLIVNQTGSCAFDEFFSQSCAPGADPKSRLCALCAGDDQGLDKCVPNSKEKYYGYTGAFRCLAEDVGDVAFVKNDTVWENTNGESTADWAKNLNREDFRLLCLDGTRKPVTEAQSCHLAVAPNHAVVSRSDRAAHVKQVLLHQQALFGKNGKNCPDKFCLFKSETKNLLFNDNTECLAKLGGRPTYEEYLGTEYVTAIANLKKCSTSPLLEACAFLTR
modifications: iron-free apo form
The term IC50 denotes the concentration that gives 50% inhibition. High values mean weaker potency, low ones greater potency. B1: the “IFNβ and interferon-stimulated gene transcripts” value in assay [1] is on record as “up-regulation”. Moreover, the IC50 in the assay on SARS-CoV-2 [2] was determined as 440 nM. Moreover, the “viral replication (viral RNA by RT-qPCR)” value in the assay on SARS-CoV-2 [3] is “dose-dependent inhibition of viral replication”. The “antiviral activity at high MOI” value with SARS-CoV-2 [4] is “retained antiviral activity”. Moreover, in the assay on SARS-CoV-2 [4] (iAEC2), the “antiviral activity against SARS-CoV-2 in iAECs” value is on record as “dose-responsive antiviral activity”. In addition, the “efficacy across all tested cell systems” value in the assay on SARS-CoV-2 [5] is “maintained efficacy across all tested cell systems”. In the assay on SARS-CoV-2 [6], the “antiviral activity through a range of MOIs” value is on record as “retained antiviral activity” and the “antiviral activity when added after infection” value was “maintained antiviral activity”.

B2: hololactoferrin: iron-saturated hololactoferrin (Sigma-Aldrich; L4765) (protein, UniProt P24627 20-708, looked up)
Lactotransferrin: B1 Lactotransferrin
modifications: iron-saturated
As for B2, in the assay on SARS-CoV-2 [6] (Huh7, 6,250 nM), the “antiviral activity (iron chelation control)” value is given as “retained activity”.

B3: Human Lactoferrin: native human lactoferrin (Creative BioMart; LFT-8196H) (protein, UniProt P02788 20-710, looked up)
Lactotransferrin: GRRRSVQWCAVSQPEATKCFQWQRNMRKVRGPPVSCIKRDSPIQCIQAIAENRADAVTLDGGFIYEAGLAPYKLRPVAAEVYGTERQPRTHYYAVAVVKKGGSFQLNELQGLKSCHTGLRRTAGWNVPIGTLRPFLNWTGPPEPIEAAVARFFSASCVPGADKGQFPNLCRLCAGTGENKCAFSSQEPYFSYSGAFKCLRDGAGDVAFIRESTVFEDLSDEAERDEYELLCPDNTRKPVDKFKDCHLARVPSHAVVARSVNGKEDAIWNLLRQAQEKFGKDKSPKFQLFGSPSGQKDLLFKDSAIGFSRVPPRIDSGLYLGSGYFTAIQNLRKSEEEVAARRARVVWCAVGEQELRKCNQWSGLSEGSVTCSSASTTEDCIALVLKGEADAMSLDGGYVYTAGKCGLVPVLAENYKSQQSSDPDPNCVDRPVEGYLAVAVVRRSDTSLTWNSVKGKKSCHTAVDRTAGWNIPMGLLFNQTGSCKFDEYFSQSCAPGSDPRSNLCALCIGDEQGENKCVPNSNERYYGYTGAFRCLAENAGDVAFVKDVTVLQNTDGNNNEAWAKDLKLADFALLCLDGKRKPVTEARSCHLAMAPNHAVVSRMDKVERLKQVLLHQQAKFGRNGSDCPDKFCLFQSETKNLLFNDNTECLARLHGKTTYEKYLGPQYVAGITNLKKCSTSPLLEACEFLRK
As to B3, the “antiviral activity at high MOI” value in the assay on SARS-CoV-2 [4] is on record as “retained antiviral activity”.
